Results on two substances are retold here after publication PMC4759192.

The target of assay [1] is complex III (cytochrome c reductase/cytochrome bc1 complex) (bovine (endogenous in bovine heart)) (UniProt P00157). Description: co-sedimentation + native gel or EMSA; crystalline complex III exchanged into amphipol, stepwise sucrose gradient 0.8-1.2 M in HEPES-Na pH 7.8, 105,000 x g, 15 h, 4 C; fractions by BN-PAGE.
For assay [2], the target named is complex I (NADH dehydrogenase) (bovine (endogenous in bovine heart)). Description: absorption spectroscopy of the co-purified supercomplex; concentrations of b-type and c-type cytochromes (redox difference spectra) and of complex IV (reduced form) in eight supercomplex samples, room temperature, HEPES-Na pH 7.8 with sucrose.
Assay [3] concerns the target complex IV (cytochrome c oxidase) (bovine (endogenous in bovine heart)). The assay is described as above.
Assay [4] has the same target. Description: native gel or EMSA; BN-PAGE of bovine heart mitochondria solubilized with digitonin. Background: A gel shift assay detects complexes by their altered migration in electrophoresis.

Consider “complex III (cytochrome c reductase/cytochrome bc1 complex) (from UniProt P00157 1-379; P00125 85-325)”, for which, in assay [1], the stoichiometry N was determined as 2. The substance further showed a stoichiometry N (complex III per complex I) in assay [2] of 2. In addition, in assay [3], the ratio b-type cytochrome/complex IV1 (average) (b-type cytochrome per complex IV monomer) turned out to be 3.88, the ratio c-type cytochrome/complex IV1 (average) (c-type cytochrome per complex IV monomer) amounted to 2.2 and the stoichiometry N (complex III per complex IV) stood at 2.
In assay [4], complex IV (cytochrome c oxidase) displayed a stoichiometry N of 2. In assay [2], the stoichiometry N (complex IV per complex I) stood at 1.

What is called stoichiometry N is a count of units in the complex or per binding partner.
